{
  "source": "patent US20210301018A1",
  "about": "(ITABMED HK, published 2021)",
  "key": {"[1]": {"molecular_target": "T1, human CD19 on cells (human B lymphocytes; Raji, Daudi and Reh tumor cells) (human, UniProt P15391 20-556)", "T1 construct": "whole, on cells; also called huCD19; cell surface antigen CD19 on human B cells", "T1 sequence (looked up)": "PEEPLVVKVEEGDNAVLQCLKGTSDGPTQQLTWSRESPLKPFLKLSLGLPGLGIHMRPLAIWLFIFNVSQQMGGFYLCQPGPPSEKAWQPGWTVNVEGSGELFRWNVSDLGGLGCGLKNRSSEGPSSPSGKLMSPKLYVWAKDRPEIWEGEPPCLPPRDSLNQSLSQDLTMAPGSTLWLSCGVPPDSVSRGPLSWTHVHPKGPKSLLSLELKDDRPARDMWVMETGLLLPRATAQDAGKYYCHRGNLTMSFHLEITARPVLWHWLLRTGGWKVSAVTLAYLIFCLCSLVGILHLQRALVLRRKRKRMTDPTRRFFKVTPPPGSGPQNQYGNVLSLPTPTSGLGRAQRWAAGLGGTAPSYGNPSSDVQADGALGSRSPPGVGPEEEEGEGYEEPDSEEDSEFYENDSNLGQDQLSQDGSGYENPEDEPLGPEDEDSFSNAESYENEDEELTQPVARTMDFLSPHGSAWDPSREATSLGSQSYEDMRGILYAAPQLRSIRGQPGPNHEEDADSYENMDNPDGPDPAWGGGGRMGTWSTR", "assay": "flow cytometry, binding rate on B cells in human PBMC, detection with anti-human Ig κ light chain", "protocol": "(§1) About 3.6×10⁵ PBMCs (huPBMC or cynoPBMC) per well were added to a 96-well plate. […] Cells were washed with FACS buffer once, resuspended in 50 μL FACS buffer, supplemented with Antibody PE Mouse Anti-Human CD20 (BD Pharmingen™), FITC Mouse Anti-Human CD4 (BD Pharmingen™), and APC Mouse anti-Human Ig, κ Light Chain (BD Pharmingen™), and incubated at room temperature for 45 min. 200 μL FACS buffer was finally added, and the samples were analyzed using ACCURI® C6 Cytometer (BD Biosciences).\n(§2) Binding rate was plotted against the y-axis, and drug concentration was plotted against the x-axis. The curve was fitted using a 4-parameter logistic model to determine EC50."}, "[2]": {"molecular_target": "T2, cynomolgus monkey CD19 on cynomolgus monkey B lymphocytes (cynoPBMC) (cynomolgus monkey, UniProt A0A2K5W8L9 20-557)", "T2 construct": "whole, on cells; also called cynoCD19; cell surface antigen CD19 on cynomolgus monkey B cells", "T2 sequence": "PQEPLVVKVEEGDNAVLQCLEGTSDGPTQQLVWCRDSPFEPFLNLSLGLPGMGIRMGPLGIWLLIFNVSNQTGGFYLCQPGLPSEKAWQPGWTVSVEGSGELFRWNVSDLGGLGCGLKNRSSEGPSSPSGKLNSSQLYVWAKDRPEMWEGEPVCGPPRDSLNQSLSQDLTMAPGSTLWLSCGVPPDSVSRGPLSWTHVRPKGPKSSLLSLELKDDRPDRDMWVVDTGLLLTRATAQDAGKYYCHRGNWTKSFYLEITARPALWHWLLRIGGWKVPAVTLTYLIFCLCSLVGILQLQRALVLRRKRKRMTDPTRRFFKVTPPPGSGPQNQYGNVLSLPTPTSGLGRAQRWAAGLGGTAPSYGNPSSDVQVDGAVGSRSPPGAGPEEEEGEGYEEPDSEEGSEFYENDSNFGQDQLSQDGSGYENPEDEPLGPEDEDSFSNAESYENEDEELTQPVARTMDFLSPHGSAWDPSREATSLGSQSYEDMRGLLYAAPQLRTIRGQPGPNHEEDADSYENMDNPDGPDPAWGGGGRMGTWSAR", "assay": "flow cytometry, binding rate on B cells in cynomolgus monkey PBMC, detection with anti-human Ig κ light chain", "protocol": "(§3) CynoPBMC Preparation: Whole blood samples from cynomolgus monkeys were diluted with PBS buffer (Gibco), centrifuged by density gradient centrifugation using 90% Ficoll-Paque isolation buffer (obtained by diluting Ficoll-Paque with PBS, Ficoll-Paque, GE Healthcare) to obtain PBMC, washed twice with PBS, then centrifuged at room temperature, 1000 g for 10 min. Cells were collected, and resuspended in RPM′ 1640 Medium (Gibco) containing 10% FBS.\nas §1, §2"}, "[3]": {"molecular_target": "T3, Cynomolgus/Rhesus CD19 Protein (Fc Tag) (Sino Biological) (cynomolgus monkey / rhesus, UniProt F7F486 20-292 (rhesus entry))", "T3 construct": "Bought reagent; also called cynoCD19.Fc", "T3 sequence": "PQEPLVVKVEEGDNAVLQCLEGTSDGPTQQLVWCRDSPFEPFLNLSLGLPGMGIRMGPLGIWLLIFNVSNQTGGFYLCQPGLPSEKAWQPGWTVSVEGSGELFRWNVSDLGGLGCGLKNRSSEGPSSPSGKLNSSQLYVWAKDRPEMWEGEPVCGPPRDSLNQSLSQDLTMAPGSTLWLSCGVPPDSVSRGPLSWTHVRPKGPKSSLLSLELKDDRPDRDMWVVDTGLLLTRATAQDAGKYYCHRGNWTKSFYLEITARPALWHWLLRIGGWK", "assay": "BLI (Octet QKe), antigen-Fc captured on AHC sensor, ITAB2009 in solution", "protocol": "(§4) The human CD3 antigen construct (CD3εAA 1-27.Fc) and the cynomolgus monkey CD3 antigen construct (cynoCD3εAA 1-27.Fc) each consists of a peptide of amino acid residues 1-27 of CD3ε connected to a human IgG Fc. The expression of the antigen constructs is described in U.S. Pat. No. 8,846,042. The CD3 or CD19 antigen constructs (Cynomolgus/Rhesus CD19 Protein (Fc Tag), Sino Biological. Inc.; Recombinant Human CD19 Fc Chimera, R&D Systems. Inc.) were diluted to 0.02 mg/mL with dilution buffer (PBS), and then immobilized on an anti-Human Fc capture (AHC) biosensor. […] The control wells containing only PBS were also set up. The detection results were analyzed using ForteBio Data Analysis software."}, "[4]": {"molecular_target": "T4, cynomolgus monkey CD3 antigen construct cynoCD3εAA 1-27.Fc (cynomolgus monkey; human, UniProt Q95LI5 22-48)", "T4 construct": "range 1-27", "T4 chain (looked up)": "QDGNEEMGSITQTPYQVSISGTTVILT", "assay": "BLI (Octet QKe), antigen-Fc captured on AHC sensor, ITAB2009 in solution", "protocol": "as §4"}, "[5]": {"molecular_target": "T5, Recombinant Human CD19 Fc Chimera (R&D Systems) (human, UniProt P15391 20-291)", "T5 construct": "Bought reagent; also called huCD19.Fc; not shown: Fc of the bought chimera", "T5 sequence (looked up)": "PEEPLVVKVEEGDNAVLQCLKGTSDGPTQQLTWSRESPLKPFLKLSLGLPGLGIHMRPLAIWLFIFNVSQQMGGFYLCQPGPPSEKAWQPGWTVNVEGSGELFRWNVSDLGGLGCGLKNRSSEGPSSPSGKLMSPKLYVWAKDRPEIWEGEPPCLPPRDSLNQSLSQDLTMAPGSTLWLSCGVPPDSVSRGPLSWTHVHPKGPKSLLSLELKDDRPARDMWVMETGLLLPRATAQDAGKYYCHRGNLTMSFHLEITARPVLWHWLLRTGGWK", "assay": "BLI (Octet QKe), antigen-Fc captured on AHC sensor, ITAB2009 in solution", "protocol": "as §4"}, "[6]": {"molecular_target": "T6, human CD3 on human T lymphocytes (huPBMC) (human, UniProt P07766 23-207)", "T6 construct": "whole, on cells; also called huCD3; cell surface antigen CD3 on human T cells", "T6 sequence (P07766 23-207)": "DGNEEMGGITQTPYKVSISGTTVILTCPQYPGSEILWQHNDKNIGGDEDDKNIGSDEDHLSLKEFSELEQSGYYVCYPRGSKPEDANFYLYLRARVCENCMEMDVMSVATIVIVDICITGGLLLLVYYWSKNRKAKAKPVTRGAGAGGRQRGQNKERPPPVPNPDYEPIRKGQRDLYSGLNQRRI", "assay": "flow cytometry, binding rate on T cells in human PBMC, detection with anti-human Ig κ light chain", "protocol": "as §1, §2"}, "[7]": {"molecular_target": "T1, human CD19 on cells (human B …)", "assay": "cell-based or functional assay"}, "[8]": {"molecular_target": "T7, cynomolgus monkey CD3 on cynomolgus monkey T lymphocytes (cynoPBMC) (cynomolgus monkey, UniProt Q95LI5 22-198)", "T7 construct": "whole, on cells; also called cynoCD3; cell surface antigen CD3 on cynomolgus monkey T cells", "assay": "flow cytometry, binding rate on T cells in cynomolgus monkey PBMC, detection with anti-human Ig κ light chain", "protocol": "as §3, §1, §2"}},
  "data": [
    {"binder": "CD19×CD3 bispecific antigen binding protein ITAB2009 (bispecific antibody, Anti-CD3 scFv joined to the N-terminus of the VH of the anti-CD19 Fab; also called CD19×CD3 BSAP ITAB2009; ITB2009) EVQLVESGGGLVQPGGSLRLSCAASGFTFNTYAMNWVRQAPGKGLEWVARIRSKYNNYATYYADSVKDRFTISRDDSKNTLYLQMNSLRAEDTAVYYCVRHGNFGNSYVSWFAYWGQGTMVTVSSGGGGSGGGGSGGGGSQAVVTQEPSLTVSPGGTVTLTCRSSTGAVTTSNYANWVQQKPGQAPRGLIGGTNKRAPGTPARFSGSLLGGKAALTLSGVQPEDEAEYYCALWYSNLWVFGGGTKLTVLSGGGGSQVQLVQSGPELIKPGGSVKMSCKASGYTFTSYVMHWVRQKPGQGLEWIGYINPYNDGTKYNEKFKGRATLTSDKSSSTAYMELSSLRSEDSAVYYCARGTYYYGSRVFDYWGQGTTVTVSSASTKGPSVFPLAPSSKSTSGGTAALGCLVKDYFPEPVTVSWNSGALTSGVHTFPAVLQSSGLYSLSSVVTVPSSSLGTQTYICNVNHKPSNTKVDKKVEPKSCPPCS light: DVVMTQSPSSIPVTLGESVSISCRSSKSLQNVNGNTYLYWFQQRPGQSPQLLIYRMSNLNSGVPDRFSGSGSGTDFTLRISGVEPEDVGVYYCMQHLEYPITFGAGTKLEIKRTVAAPSVFIFPPSDEQLKSGTASVVCLLNNFYPREAKVQWKVDNALQSGNSQESVTEQDSKDSTYSLSSTLTLSKADYEKHKVYACEVTHQGLSSPVTKSFNRGECPPCS", "values": [
      {"measurement": "EC50", "setting": "[1]", "value": 35, "unit": "ng/mL"},
      {"measurement": "EC50", "setting": "[2]", "value": 1900, "unit": "ng/mL"},
      {"measurement": "Kd", "setting": "[3]", "value": 29.6, "unit": "nM"},
      {"measurement": "Kd", "setting": "[4]", "value": 12.9, "unit": "nM"},
      {"measurement": "Kd", "setting": "[5]", "value": 18.2, "unit": "nM"},
      {"measurement": "EC50", "setting": "[6]", "value": 204, "unit": "ng/mL"},
      {"measurement": "EC50 of CD19×CD3 BSAP mediated human PBMC cytotoxicity against tumor cells (Daudi)", "setting": "[7]", "value": 0.06, "unit": "ng/mL"},
      {"measurement": "EC50 of CD19×CD3 BSAP mediated human PBMC cytotoxicity against tumor cells (Raji)", "setting": "[7]", "value": 0.04, "unit": "ng/mL"},
      {"measurement": "EC50 of CD19×CD3 BSAP mediated human PBMC cytotoxicity against tumor cells (Reh)", "setting": "[7]", "value": 0.24, "unit": "ng/mL"},
      {"measurement": "EC50", "setting": "[8]", "value": 115, "unit": "ng/mL"}
    ]}
  ]
}
